In patent US20110311550A1 one finds Binding relative to wt (%) data, which are given here for one substance.

What all share (experiment): ELISA, lectin-captured E1E2 lysate, Ab 1 ug/ml
For assay [1], the target named is E1E2 complex (H77) with E1 mutation D279A (HCV genotype 1a, isolate H77) (UniProt P27958).
Assay [2] has as its target E1E2 complex (H77) with E1 mutation H222A (HCV genotype 1a, isolate H77) (UniProt P27958).
Assay [3] deals with E1E2 complex (H77) with E1 mutation N196A (HCV genotype 1a, isolate H77) (UniProt P27958).
The target in assay [4] is E1E2 complex (H77) with E1 mutation N196A/N305A (HCV genotype 1a, isolate H77) (UniProt P27958).
Assay [5] has as its target E1E2 complex (H77) with E1 mutation N205A (HCV genotype 1a, isolate H77) (UniProt P27958).
For assay [6], the target named is E1E2 complex (H77) with E1 mutation P244A (HCV genotype 1a, isolate H77) (UniProt P27958).
The target in assay [7] is E1E2 complex (H77) with E1 mutation P295A (HCV genotype 1a, isolate H77) (UniProt P27958).
For assay [8], the target named is E1E2 complex (H77) with E1 mutation P328A (HCV genotype 1a, isolate H77) (UniProt P27958).
Assay [9] addresses E1E2 complex (H77) with E1 mutation S236A (HCV genotype 1a, isolate H77) (UniProt P27958).
Assay [10] addresses E1E2 complex (H77) with E1 mutation T204A (HCV genotype 1a, isolate H77) (UniProt P27958).
The target of assay [11] is E1E2 complex (H77) with E1 mutation V194A (HCV genotype 1a, isolate H77) (UniProt P27958).
The target of assay [12] is E1E2 complex (H77) with E1 mutation W239A (HCV genotype 1a, isolate H77) (UniProt P27958).
For assay [13], the target named is E1E2 complex (H77) with E1 mutation W353A (HCV genotype 1a, isolate H77) (UniProt P27958).
In assay [14] the target is E1E2 complex (H77) with E1 mutation Y201A (HCV genotype 1a, isolate H77) (UniProt P27958).
For assay [15], the target named is E1E2 complex (H77) with E2 mutation A439G (HCV genotype 1a, isolate H77) (UniProt P27958).
Assay [16] concerns the target E1E2 complex (H77) with E2 mutation L427A (HCV genotype 1a, isolate H77) (UniProt P27958).
Assay [17] addresses E1E2 complex (H77) with E2 mutation L441A (HCV genotype 1a, isolate H77) (UniProt P27958).
In assay [18] the target is E1E2 complex (H77) with E2 mutation R639A (HCV genotype 1a, isolate H77) (UniProt P27958).
The target in assay [19] is E1E2 complex (H77) with E2 mutation T425A (HCV genotype 1a, isolate H77) (UniProt P27958).

With mouse anti-E1 MAb A4 (antibody), the Binding relative to wt (%) in assay [1] was determined as 28%; in assay [2] it was 132%; in [3], 45%; in assay [4] it was 69%; in [5] it was 96%; in assay [6] it was 85%. In addition, the Binding relative to wt (%) in [7] turned out to be 132%; in assay [8], 123%; in assay [9], 88%; in [10], 102%; in [11], 160%; in [12], 103%. In addition, the Binding relative to wt (%) is 75% in [13]; 5% in assay [14]; 119% in assay [15]; 102% in [16]; 111% in assay [17]; 162% in [18]. This substance gave a Binding relative to wt (%) in assay [19] of 104%.
